Laboratory results published in patent US20200002421A1, “ANTI-B7-H3 ANTIBODIES AND ANTIBODY DRUG CONJUGATES” (AbbVie Inc., priority 2016, published 2020).

T1: human B7-H3 (Homo sapiens, UniProt Q5ZPR3)
T1 construct: His tag (6xHis) (C)
T1 sequence (Q5ZPR3 with tags, fused parts or gaps): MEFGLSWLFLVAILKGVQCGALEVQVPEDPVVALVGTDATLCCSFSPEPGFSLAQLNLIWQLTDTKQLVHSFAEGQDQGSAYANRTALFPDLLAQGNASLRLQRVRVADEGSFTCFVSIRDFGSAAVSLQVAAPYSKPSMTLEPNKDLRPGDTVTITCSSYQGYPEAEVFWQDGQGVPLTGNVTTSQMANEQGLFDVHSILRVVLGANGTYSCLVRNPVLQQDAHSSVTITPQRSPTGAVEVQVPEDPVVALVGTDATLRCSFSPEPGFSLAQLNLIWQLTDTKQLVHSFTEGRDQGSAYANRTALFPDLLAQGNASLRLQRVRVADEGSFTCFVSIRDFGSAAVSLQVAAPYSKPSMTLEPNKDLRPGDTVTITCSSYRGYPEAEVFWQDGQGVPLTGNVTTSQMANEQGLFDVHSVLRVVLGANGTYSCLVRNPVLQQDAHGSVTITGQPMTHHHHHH

T2: huB7-H3 (Homo sapiens, UniProt Q5ZPR3)
T2 construct: His tag (6xHis) (C)
T2 sequence (Q5ZPR3 with tags, fused parts or gaps): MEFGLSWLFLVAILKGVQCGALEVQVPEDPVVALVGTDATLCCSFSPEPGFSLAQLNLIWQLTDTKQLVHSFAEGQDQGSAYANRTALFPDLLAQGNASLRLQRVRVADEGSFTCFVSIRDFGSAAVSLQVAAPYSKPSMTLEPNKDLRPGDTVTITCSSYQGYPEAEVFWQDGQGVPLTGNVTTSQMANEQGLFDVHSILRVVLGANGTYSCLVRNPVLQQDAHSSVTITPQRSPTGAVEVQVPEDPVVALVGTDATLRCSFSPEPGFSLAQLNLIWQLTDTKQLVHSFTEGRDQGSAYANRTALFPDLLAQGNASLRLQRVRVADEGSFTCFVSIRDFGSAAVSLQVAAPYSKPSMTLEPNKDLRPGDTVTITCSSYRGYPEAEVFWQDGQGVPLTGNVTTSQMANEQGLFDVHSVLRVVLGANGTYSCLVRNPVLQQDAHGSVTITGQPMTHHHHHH


Key:
[1] = molecular target: T1, human B7-H3; experiment: Epitope grouping by pair-wise Biacore SPR binding; settings: simultaneous binding assay, FIG. 1
Text: Pair-wise binding assays performed on Biacore T200 SPR instruments were used to determine the relative epitope grouping for the murine anti-B7-H3 mAbs as described in the methods below. […] Epitope groups are represented as individual ovals, some of which overlap with each other. Antibodies in different epitope groups can bind to B7-H3 simultaneously and likely bind to different epitopes while antibodies within a given epitope group cannot bind to B7-H3 simultaneously and likely bind to overlapping epitopes. The grouping information was derived from a simultaneous binding assay as described in materials and methods. Ab3, Ab4, Ab5, Abl 1, Ab12, and Ab8 groupings were ambiguous
Pair-wise binding assays performed on Biacore T200 SPR instruments were used to determine the relative epitope grouping for a series of anti-B7-H3 mAbs. The assay format was Fc-based capture via immobilized anti-mouse (Fc) (Pierce 31170) or immobilized anti-human (Fc) (Pierce 31125). A standard amine coupling protocol was employed to immobilize the capture reagents via primary amines to the carboxy-methyl (CM) dextran surface of CM5 sensorchips (Biacore); capture antibodies were coupled to a level of approximately 2000 RU. Epitope grouping measurements were done at 12° C. (low temperature allows for grouping information on fast off-rate mAbs), the assay buffer was HBS-EP+(Biacore): 10 mM Hepes, pH7.4, 150 mM NaCl, 3 mM EDTA, 0.05% polysorbate 20. Each assay cycle consisted of the following steps in a four flowcell system: 1) separate test mAbs were captured in flowcells 2, 3 & 4 (flowcell 1 was reference, no test mAb); 2) all 4 flowcells were then blocked by injection with isotype control mAb or isotype mAb cocktail at 50 μg/mL; 3) all 4 flowcells were then injected with antigen or buffer only (buffer only is for double referencing, done for each mAb pair individually); 4) all 4 flowcells were then injected with 2nd test mAb at 10 μg/mL; 5) all 4 flowcells were then regenerated with glycine, pH1.5. The assay was done for each test mAb pair in reciprocal orientations. Simultaneous binding was evaluated examining the ratio of the 2nd test mAb response to the Ag response (RUmAb2/RUAg); if this ratio was equal to or greater than 0.2 the interaction was scored as a simultaneous binder. From this pair-wise binding assay data a “venn” style diagram was constructed manually to depict relative epitope groupings.

[2] = molecular target: T2, huB7-H3; experiment: Biacore T200 SPR binding kinetics, mAb capture; settings: Table 3
Procedure: The binding affinity of the purified anti-B7-H3 monoclonal antibodies was determined by surface […]. […] The binding kinetics were derived from SPR measurements using a Biacore T200 instrument and a mAb capture approach (as described in the materials and methods below).
Biacore T200 SPR instruments were used to measure the binding kinetics of human B7-H3 (4Ig-B7-H3 variant) (analyte) binding to various mAbs (ligands). The assay format was Fc-based capture via immobilized anti-mouse (Fc) (Pierce 31170) or immobilized anti-human (Fc) (Pierce 31125). A standard amine coupling protocol was employed to immobilize the capture reagents via primary amines to the carboxy-methyl (CM) dextran surface of CM5 sensorchips (Biacore); capture antibodies were coupled to a level of approximately 5000 RU. For binding kinetic measurements the assay buffer was HBS-EP+(Biacore): 10 mM Hepes, pH7.4, 150 mM NaCl, 3 mM EDTA, 0.05% polysorbate 20. During the assay, all measurements were referenced against the capture surface alone. Each assay cycle consisted of the following steps: 1) Capture of ligand to approximately 50 RU; 2) Analyte injection over both reference and test surface, 240 μL at 80 μL/min, after which the dissociation was monitored for 900 seconds at 80 μL/min; 3) Regeneration of capture surface with low pH glycine. For kinetic determinations analyte injections were 3-point, 9-fold dilution series of 900 nM, 100 nM and 11.11 nM, buffer only injections were included for secondary referencing. Data were processed and fit to a 1:1 binding model using Biacore T200 Evaluation Software to determine the binding kinetic rate constants, ka (on-rate) and kd (off-rate), and the equilibrium dissociation constant (affinity, KD).

[3] = Conjugation observation (precipitation after conjugation, Method A); assay type: physicochemical; settings: conjugated to synthon CZ
Procedure: Table 6 provides cell surface binding and cytotoxicity activity of anti-B7-H3 chimera ADCs against breast cancer cell HCC38 expressing human B7-H3.
A solution of Bond-Breaker™ tris(2-carboxyethyl)phosphine (TCEP) solution (10 mM, 0.017 mL) was added to a solution of antibody (10 mg/mL, 1 mL) preheated to 37° C. The reaction mixture was kept at 37° C. for 1 hour. The solution of reduced antibody was added to a solution of synthon (3.3 mM, 0.160 mL in DMSO) and gently mixed for 30 minutes. The reaction solution was loaded onto a desalting column (PD10, washed with Dulbecco's phosphate-buffered saline [DPBS] 3× before use), followed by DPBS (3 mL). The purified ADC solution was filtered through a 0.2 micron, low protein-binding 13 mm syringe-filter and stored at 4° C.

[4] = tested on: HCC38 cell line; experiment: In vitro cell viability assay (CellTiter-Glo), HCC38; assay type: cell-based, human; settings: conjugated to synthon CZ
Procedure: The tumor cell lines HCC38 (breast cancer), NCI-H1650 (NSCLC) and NCI-H847 (small cell lung cancer cell line) were obtained from American Type Culture Collection (ATCC). Cells were grown in 96-well culture plates using recommended growth media overnight at a density of 5×10^3 (HCC38) or 20×10^3 (NCI-H847) or 40×10^3 (NCI-H1650) per well. The following day, treatments were added in fresh media to triplicate wells. Cellular viability was determined 5 days later using the CellTiter-Glo Luminescent Cell Viability Assay kit (Promega), as directed in the manufacturer's protocol. Cell viability was assessed as percentage of control untreated cells.

Molecule	epitope grouping [1]	huB7-H3 ka(1/Ms) [2] [M⁻¹ s⁻¹]	precipitation following conjugation to synthon CZ (in words) [3]	cytotoxicity in cells expressing human B7-H3 / HCC38 cell line (in words) [4]
Ab11: mouse hybridoma anti-B7-H3 monoclonal antibody, mouse IgG1/k (antibody, V domains shown) VH: EVKLVESGGGLVQPGGSLRLSCATSGFTFTNYYMSWVRQPPGKALEWLGFIRNKANDYTTEYSASVKGRFTISRDNSQSILYLQMNTLRAEDSATYYCARESPGNPFAYWGQGTLVTVSA VL: DIVMTQSPSSLTVTAGEKVTMTCKSSQSLLNSGTQKNFLTWYQQKPGQPPKLLIYWASTRESGVPDRFTGSGSGTDFTLTISSVQAEDLAVYFCQNDYIYPLTFGAGTKLELK	ambiguous	20000		
Ab12: mouse hybridoma anti-B7-H3 monoclonal antibody, mouse IgG1/k (antibody, V domains shown) VH: EVQLVESGGGLVKPGGSLKLSCAASGFTFSSYAMSWVRQTPEKRLEWVATISSGTNYTYYPDSVKGRFTISRDNAKNTLYLQMTSLRSEDTAMYYCARQGRYSWIAYWGQGTLVTVSA VL: DIVLTQSPASLAVSLGQRATISCRASKSVSTSDYSYMHWNQQKPGQPPKLLIYLASNLESGVPARFSGSGSGTDFTLNIHPVEEEDAATYYCQHSRELLTFGAGTKLELK	ambiguous	38000		
Ab8: mouse hybridoma anti-B7-H3 monoclonal antibody, mouse IgG1/k (antibody, V domains shown) VH: EVKLVESGGGLVKPGGSLKLSCAASGFTFSSYGMSWVRQTPEKRLEWVATISGGGNYTYCPDSVKGRFTISRDNAKNNLYLQMSSLRSEDTALYYCTRQRGYDYHYAMDFWGQGTSVTVSS VL: DIQMTQSPASLSVSVGETVTITCRASENIYSNLAWHQQKQGKSPQLLVYAATNLADGVPSRFSGNGSDTQYSLKINSLQSEDFGSYFCQNFWGTSWTFGGGTKLEIK	ambiguous	58000		
chAb2: chimeric anti-B7-H3 antibody huIgG1/k, parental hybridoma Ab2; VH SEQ ID NO: 1, VL SEQ ID NO: 5 (antibody, V domains shown, human IgG1/kappa constant regions; Synthetic chAb2 VH amino acid sequence; Synthetic chAb2 VL amino acid sequence) VH: QVQLQQPGAELVKPGASVKLSCKASGYTFTSYWMHWVKQRPGQGLEWIGMIHPDSGTTNYNEKFRSKATLTVDKSSSTAYMQLSSLTSEDSAVYYCAVYYGSTYWYFDVWGTGTTVTVSS VL: DVVMTQTPLSLPVSLGDQAYISCRSSQSLVHINGNTYLHWYRQKPGQSPKLLIYKVSNRFSGVPDRFSGSGSGTDFTLKISRVEAEDLGVYFCSQSTHFPFTFGSGTKLEIK			precipitated	weak cytotoxicity
chAb6: chimeric anti-B7-H3 antibody huIgG1/k, parental hybridoma Ab6; VH SEQ ID NO: 56, VL SEQ ID NO: 60 (antibody, V domains shown, human IgG1/kappa constant regions; Synthetic chAb6 VH amino acid sequence; Synthetic chAb6 VL amino acid sequence) VH: QVQLQQSGAELMKPGASVKISCKATGYTFSRYWIEWVKQRPGHGLEWIGEILPGSGSTNYNEKFKGKATFTADTSSNTAYMQVSSLTSEDSAVHYCARRGYGYVPYALDYWGQGTSVTVSS VL: EIQMTQTTSSLSASLGDRVTISCRASQDISNSLNWYQQKPDGTVNLLIYYTSRLYSGVPSRFSGSGSGTDYSLTISNLEQEDIATYFCQQGNTLPYTFGGGTKLEIK			precipitated	weak cytotoxicity
